Paper PMC5588734, “In vitro oxidative decarboxylation of free fatty acids to terminal alkenes by two new P450 peroxygenases” (Biotechnology for Biofuels, 2017)

Substrate: CCCCCCCCCCCC(=O)O
Assay: initial rates of substrate consumption by GC, Hill fit
Assay type: biochemical, Alicyclobacillus acidocaldarius
Settings: excess H2O2, pH 7.4, 28 °C, Hill n 2.1 ± 0.8
Text: initial rates of substrate consumption by GC, Hill fit on CYP-Aa162

B1: CYP-Aa162 (Alicyclobacillus acidocaldarius LAA1) (protein)
chain: MNQCIPRDRTFDSSLALIKEGYLFIKNRVDQYQSDIFEARLLLENVVCMHGAEAAKLFYNTELFQRQGALPKRVQKTLFGENAIQTLDGTAHLHRKQLFLSLLTPDQEKSLATLATTQWRECAKVWENADRVVLFEEAKRMLCRIACQWTGVPLDESEVSKRADDFGAMVDAFGAVGPRHWKGRRARARAEAWLRQMIDEIRIGLRSVDEHTPLHVVAFWRDVNGNLLDAQMVAIELINLLRPIVAISTFITFSALALHEHPTWRDRLKARNEADIEMFVQEVRRYYPFAPFLGARVKKDFVWRGYEFKRGTLVLLDVYGTHHDARLWDSPNEFRPERFMRKTVGPFDLIPQGGGDSHTGHRCPGEGATIEIMKASVDFLVNQIDFEVPAQDLSYRLDVMPTLPKSGFVLTHVHRKFIASPTIATPNGSEALPSEV
  K0.5: 93.1 ± 37.7 µM
  kcat: 0.768 ± 0.285 s⁻¹
  kcat/Km: 8330 M⁻¹ s⁻¹
